# Read-outs that look alike come from different tables or passages of the source. Numbered stars: 1 amine (or outer) side, 2 acyl side, 3 side chain; on linkers, the order of the positions; unused ones are H or OH. Side chains are listed from the residue outwards. Ends that are not written are not given here. * marks the point of attachment. γGlu = O=C(O)[C@H](CCC(=O)[*:2])N[*:1]; Palmitoyl = CCCCCCCCCCCCCCCC(=O)*
# T1: mouse GLP-1 receptor (mouse, UniProt O35659 22-463)
# T1 sequence (looked up): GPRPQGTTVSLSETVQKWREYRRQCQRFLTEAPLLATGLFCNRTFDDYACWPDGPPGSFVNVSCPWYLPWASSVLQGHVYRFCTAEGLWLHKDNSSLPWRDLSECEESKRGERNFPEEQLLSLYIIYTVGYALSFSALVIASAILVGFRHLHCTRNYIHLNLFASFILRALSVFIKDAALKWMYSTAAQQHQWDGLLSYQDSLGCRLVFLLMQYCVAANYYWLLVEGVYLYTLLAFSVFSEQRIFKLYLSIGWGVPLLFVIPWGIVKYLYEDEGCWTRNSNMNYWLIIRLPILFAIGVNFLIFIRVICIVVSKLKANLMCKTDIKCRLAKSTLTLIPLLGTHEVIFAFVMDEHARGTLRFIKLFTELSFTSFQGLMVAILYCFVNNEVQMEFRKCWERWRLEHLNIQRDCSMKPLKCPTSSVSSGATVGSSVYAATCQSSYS
# T2: human glucose-dependent insulinotropic peptide (gastric inhibitory polypeptide) receptor (human, UniProt P48546 22-466)
# T2 sequence (looked up): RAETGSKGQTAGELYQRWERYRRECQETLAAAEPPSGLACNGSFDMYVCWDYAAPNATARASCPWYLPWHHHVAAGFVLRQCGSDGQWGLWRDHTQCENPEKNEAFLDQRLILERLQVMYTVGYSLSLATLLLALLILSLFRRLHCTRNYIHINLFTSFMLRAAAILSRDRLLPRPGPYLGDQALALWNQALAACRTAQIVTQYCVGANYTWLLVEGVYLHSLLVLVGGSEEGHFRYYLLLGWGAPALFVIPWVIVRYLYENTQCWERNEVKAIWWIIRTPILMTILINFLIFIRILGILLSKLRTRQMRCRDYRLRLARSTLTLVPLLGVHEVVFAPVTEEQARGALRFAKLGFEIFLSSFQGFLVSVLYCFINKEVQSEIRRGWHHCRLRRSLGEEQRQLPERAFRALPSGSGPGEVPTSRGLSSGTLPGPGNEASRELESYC
# T3: human glucose-dependent insulinotropic peptide (gastric inhibitory polypeptide) receptor (human) (UniProt P48546)
# T3 sequence (looked up): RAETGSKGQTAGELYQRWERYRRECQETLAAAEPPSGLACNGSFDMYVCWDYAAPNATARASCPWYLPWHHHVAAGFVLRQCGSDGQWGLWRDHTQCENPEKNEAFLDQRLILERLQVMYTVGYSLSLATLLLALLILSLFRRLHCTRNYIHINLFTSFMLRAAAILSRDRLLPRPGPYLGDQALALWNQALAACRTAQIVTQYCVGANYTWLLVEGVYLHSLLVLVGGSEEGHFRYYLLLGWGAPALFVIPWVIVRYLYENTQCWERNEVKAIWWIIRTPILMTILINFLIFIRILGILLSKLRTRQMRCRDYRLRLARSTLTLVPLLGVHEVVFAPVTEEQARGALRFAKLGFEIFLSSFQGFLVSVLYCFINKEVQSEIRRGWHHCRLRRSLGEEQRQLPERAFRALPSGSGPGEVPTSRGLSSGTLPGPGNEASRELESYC
# Legend:
# Experiment in all cases: cell-based or functional assay
# human GLP-1 receptor [1] = target: T4, human GLP-1 receptor (human, UniProt P43220 24-463)
# mouse GLP-1 receptor = target: T1, mouse GLP-1 receptor
# rat glucagon receptor = rat glucagon receptor (rat, UniProt P30082 27-485)
# mouse glucagon receptor = mouse glucagon receptor (mouse, UniProt Q61606 27-485)
# human GLP-1 receptor [2] = target: T4, human GLP-1 receptor; remark: listed apart in the source
# [3] = target: T2, human glucose-dependent insulinotropic …
# human glucagon receptor [4] = target: T5, human glucagon receptor (human, UniProt P47871 26-477)
# human GLP-1 receptor [5] = target: T4, human GLP-1 receptor; remark: listed apart in the source
# Target sequence in this assay (P43220 24-463): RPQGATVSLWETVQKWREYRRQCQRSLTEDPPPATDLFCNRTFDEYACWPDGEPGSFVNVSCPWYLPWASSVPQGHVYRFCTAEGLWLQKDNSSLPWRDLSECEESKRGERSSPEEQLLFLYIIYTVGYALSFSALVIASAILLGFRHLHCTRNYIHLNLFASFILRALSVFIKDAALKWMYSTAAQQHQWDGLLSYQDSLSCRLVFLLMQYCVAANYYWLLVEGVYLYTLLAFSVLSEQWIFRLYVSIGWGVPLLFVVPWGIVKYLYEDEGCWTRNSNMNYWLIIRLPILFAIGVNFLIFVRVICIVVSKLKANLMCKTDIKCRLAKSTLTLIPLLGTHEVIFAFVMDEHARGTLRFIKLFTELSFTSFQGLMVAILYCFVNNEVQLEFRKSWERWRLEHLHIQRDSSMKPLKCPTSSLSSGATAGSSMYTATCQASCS
# human glucagon receptor [6] = target: T5, human glucagon receptor; remark: listed apart in the source
# [7] = target: T3, human glucose-dependent insulinotropic peptide (gastric inhibitory polypeptide) receptor (human)
# human GLP-1 receptor [8] = target: T4, human GLP-1 receptor; remark: listed apart in the source
# [9] = target: T2, human glucose-dependent insulinotropic …; remark: listed apart in the source
# human glucagon receptor [10] = target: T5, human glucagon receptor; remark: listed apart in the source
# T5 sequence (P47871 26-477): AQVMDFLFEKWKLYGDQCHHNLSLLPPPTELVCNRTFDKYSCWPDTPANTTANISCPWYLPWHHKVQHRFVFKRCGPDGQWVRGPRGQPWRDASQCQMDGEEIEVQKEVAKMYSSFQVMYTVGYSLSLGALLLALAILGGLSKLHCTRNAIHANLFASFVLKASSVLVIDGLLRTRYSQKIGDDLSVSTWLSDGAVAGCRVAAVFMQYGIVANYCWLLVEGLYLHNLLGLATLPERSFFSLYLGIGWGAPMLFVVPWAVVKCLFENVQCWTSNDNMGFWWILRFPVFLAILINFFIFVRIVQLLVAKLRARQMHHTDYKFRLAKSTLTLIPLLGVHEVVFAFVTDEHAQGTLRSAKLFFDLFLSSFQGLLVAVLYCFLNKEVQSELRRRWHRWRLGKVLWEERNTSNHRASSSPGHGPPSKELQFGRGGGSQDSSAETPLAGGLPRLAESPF
# Chain of rat glucagon receptor (P30082 27-485): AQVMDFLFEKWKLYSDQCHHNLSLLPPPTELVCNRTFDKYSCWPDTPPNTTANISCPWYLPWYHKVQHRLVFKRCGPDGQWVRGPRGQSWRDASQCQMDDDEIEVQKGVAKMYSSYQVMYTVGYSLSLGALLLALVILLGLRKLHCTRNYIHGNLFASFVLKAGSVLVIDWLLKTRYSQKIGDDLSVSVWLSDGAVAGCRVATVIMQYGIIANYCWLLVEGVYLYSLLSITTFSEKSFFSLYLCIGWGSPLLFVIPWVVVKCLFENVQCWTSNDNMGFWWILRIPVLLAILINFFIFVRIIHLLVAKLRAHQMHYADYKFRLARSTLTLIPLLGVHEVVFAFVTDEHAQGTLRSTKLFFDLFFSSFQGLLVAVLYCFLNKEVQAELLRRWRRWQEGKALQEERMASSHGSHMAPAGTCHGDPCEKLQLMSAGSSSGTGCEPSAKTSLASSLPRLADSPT
# Chain of mouse glucagon receptor (Q61606 27-485): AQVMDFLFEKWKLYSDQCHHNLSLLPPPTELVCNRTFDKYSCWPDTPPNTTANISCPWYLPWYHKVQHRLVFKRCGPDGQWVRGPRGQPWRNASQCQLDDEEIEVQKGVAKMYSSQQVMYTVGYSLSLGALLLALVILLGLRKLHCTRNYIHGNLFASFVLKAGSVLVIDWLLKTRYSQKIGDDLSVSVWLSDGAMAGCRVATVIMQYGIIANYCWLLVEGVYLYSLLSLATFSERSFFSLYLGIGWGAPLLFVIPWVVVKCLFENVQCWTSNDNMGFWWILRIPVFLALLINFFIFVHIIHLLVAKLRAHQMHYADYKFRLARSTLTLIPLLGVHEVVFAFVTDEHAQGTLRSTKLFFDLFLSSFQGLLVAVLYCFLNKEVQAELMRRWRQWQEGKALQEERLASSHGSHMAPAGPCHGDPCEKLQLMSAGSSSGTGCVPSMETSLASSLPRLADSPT
cAMP EC50 (assay 1) (human GLP-1 receptor [5]) [pM],cAMP EC50 (assay 1) (human glucagon receptor [6]) [pM],cAMP EC50 (assay 1) [7] [nM],Binder,also measured
–,–,–,HSQGTFTSDKSSYLDSRSARDFVAWLEAGG (X10 = K(gE-palm); C-terminal amide) [G865],"cAMP EC50 (assay 2, 4.4% human serum albumin) (human GLP-1 receptor [1]): 150 pM; cAMP EC50 (assay 2, 3.2% mouse serum albumin) (mouse GLP-1 receptor): 96 pM; cAMP EC50 (assay 2, 3.2% rat serum albumin) (rat glucagon receptor): 87.1 nM; cAMP EC50 (assay 2, 3.2% mouse serum albumin) (mouse glucagon receptor): 1100 pM; cAMP EC50 (assay 1) (human GLP-1 receptor [2]): 8.3 pM; cAMP EC50 (assay 1) [3]: 22 nM; cAMP EC50 (assay 1) (human glucagon receptor [4]): 12.6 pM"
27.4,1.24,4.53,HSQGTFTSDYSKYK([γGlu-Palmitoyl])DSERARDFVAWLVAGG-NH2 (N-terminus assumed; SMILES CCCCCCCCCCCCCCCC(=O)N[C@@H](CCC(=O)NCCCC[C@H](NC(=O)[C@H](Cc1ccc(O)cc1)NC(=O)[C@H](CCCCN)NC(=O)[C@H](CO)NC(=O)[C@H](Cc1ccc(O)cc1)NC(=O)[C@H](CC(=O)O)NC(=O)[C@H](CO)NC(=O)[C@@H](NC(=O)[C@H](Cc1ccccc1)NC(=O)[C@@H](NC(=O)CNC(=O)[C@H](CCC(N)=O)NC(=O)[C@H](CO)NC(=O)[C@@H](N)Cc1c[nH]cn1)[C@@H](C)O)[C@@H](C)O)C(=O)N[C@@H](CC(=O)O)C(=O)N[C@@H](CO)C(=O)N[C@@H](CCC(=O)O)C(=O)N[C@@H](CCCNC(=N)N)C(=O)N[C@@H](C)C(=O)N[C@@H](CCCNC(=N)N)C(=O)N[C@@H](CC(=O)O)C(=O)N[C@@H](Cc1ccccc1)C(=O)N[C@H](C(=O)N[C@@H](C)C(=O)N[C@@H](Cc1c[nH]c2ccccc12)C(=O)N[C@@H](CC(C)C)C(=O)N[C@H](C(=O)N[C@@H](C)C(=O)NCC(=O)NCC(N)=O)C(C)C)C(C)C)C(=O)O) [g777],–
43.8,34.1,11.8,HSQGTFTSDYSEYK([γGlu-Palmitoyl])DSERARDFVAWLVAGG-NH2 (N-terminus assumed; SMILES CCCCCCCCCCCCCCCC(=O)N[C@@H](CCC(=O)NCCCC[C@H](NC(=O)[C@H](Cc1ccc(O)cc1)NC(=O)[C@H](CCC(=O)O)NC(=O)[C@H](CO)NC(=O)[C@H](Cc1ccc(O)cc1)NC(=O)[C@H](CC(=O)O)NC(=O)[C@H](CO)NC(=O)[C@@H](NC(=O)[C@H](Cc1ccccc1)NC(=O)[C@@H](NC(=O)CNC(=O)[C@H](CCC(N)=O)NC(=O)[C@H](CO)NC(=O)[C@@H](N)Cc1c[nH]cn1)[C@@H](C)O)[C@@H](C)O)C(=O)N[C@@H](CC(=O)O)C(=O)N[C@@H](CO)C(=O)N[C@@H](CCC(=O)O)C(=O)N[C@@H](CCCNC(=N)N)C(=O)N[C@@H](C)C(=O)N[C@@H](CCCNC(=N)N)C(=O)N[C@@H](CC(=O)O)C(=O)N[C@@H](Cc1ccccc1)C(=O)N[C@H](C(=O)N[C@@H](C)C(=O)N[C@@H](Cc1c[nH]c2ccccc12)C(=O)N[C@@H](CC(C)C)C(=O)N[C@H](C(=O)N[C@@H](C)C(=O)NCC(=O)NCC(N)=O)C(C)C)C(C)C)C(=O)O) [g846],–
–,–,–,HSQGTFTSDK([γGlu-Palmitoyl])SRYLDSERARDFVAWLEAGG-NH2 (N-terminus assumed; SMILES CCCCCCCCCCCCCCCC(=O)N[C@@H](CCC(=O)NCCCC[C@H](NC(=O)[C@H](CC(=O)O)NC(=O)[C@H](CO)NC(=O)[C@@H](NC(=O)[C@H](Cc1ccccc1)NC(=O)[C@@H](NC(=O)CNC(=O)[C@H](CCC(N)=O)NC(=O)[C@H](CO)NC(=O)[C@@H](N)Cc1c[nH]cn1)[C@@H](C)O)[C@@H](C)O)C(=O)N[C@@H](CO)C(=O)N[C@@H](CCCNC(=N)N)C(=O)N[C@@H](Cc1ccc(O)cc1)C(=O)N[C@@H](CC(C)C)C(=O)N[C@@H](CC(=O)O)C(=O)N[C@@H](CO)C(=O)N[C@@H](CCC(=O)O)C(=O)N[C@@H](CCCNC(=N)N)C(=O)N[C@@H](C)C(=O)N[C@@H](CCCNC(=N)N)C(=O)N[C@@H](CC(=O)O)C(=O)N[C@@H](Cc1ccccc1)C(=O)N[C@H](C(=O)N[C@@H](C)C(=O)N[C@@H](Cc1c[nH]c2ccccc12)C(=O)N[C@@H](CC(C)C)C(=O)N[C@@H](CCC(=O)O)C(=O)N[C@@H](C)C(=O)NCC(=O)NCC(N)=O)C(C)C)C(=O)O) [g848],cAMP EC50 (assay 1) (human GLP-1 receptor [8]): 9.42 pM; cAMP EC50 (assay 1) [9]: 2.77 nM; cAMP EC50 (assay 1) (human glucagon receptor [10]): 0.966 pM
23.2,39.6,29.4,HGQGTFTSDYSKYK([γGlu-Palmitoyl])DSERARDFVAWLVAGG-NH2 (N-terminus assumed; SMILES CCCCCCCCCCCCCCCC(=O)N[C@@H](CCC(=O)NCCCC[C@H](NC(=O)[C@H](Cc1ccc(O)cc1)NC(=O)[C@H](CCCCN)NC(=O)[C@H](CO)NC(=O)[C@H](Cc1ccc(O)cc1)NC(=O)[C@H](CC(=O)O)NC(=O)[C@H](CO)NC(=O)[C@@H](NC(=O)[C@H](Cc1ccccc1)NC(=O)[C@@H](NC(=O)CNC(=O)[C@H](CCC(N)=O)NC(=O)CNC(=O)[C@@H](N)Cc1c[nH]cn1)[C@@H](C)O)[C@@H](C)O)C(=O)N[C@@H](CC(=O)O)C(=O)N[C@@H](CO)C(=O)N[C@@H](CCC(=O)O)C(=O)N[C@@H](CCCNC(=N)N)C(=O)N[C@@H](C)C(=O)N[C@@H](CCCNC(=N)N)C(=O)N[C@@H](CC(=O)O)C(=O)N[C@@H](Cc1ccccc1)C(=O)N[C@H](C(=O)N[C@@H](C)C(=O)N[C@@H](Cc1c[nH]c2ccccc12)C(=O)N[C@@H](CC(C)C)C(=O)N[C@H](C(=O)N[C@@H](C)C(=O)NCC(=O)NCC(N)=O)C(C)C)C(C)C)C(=O)O) [g732],–
42.2,27.7,40.7,HSQGTFTSDYSEYK([γGlu-Palmitoyl])DSRRAQDFVQWLVAGG-NH2 (N-terminus assumed; SMILES CCCCCCCCCCCCCCCC(=O)N[C@@H](CCC(=O)NCCCC[C@H](NC(=O)[C@H](Cc1ccc(O)cc1)NC(=O)[C@H](CCC(=O)O)NC(=O)[C@H](CO)NC(=O)[C@H](Cc1ccc(O)cc1)NC(=O)[C@H](CC(=O)O)NC(=O)[C@H](CO)NC(=O)[C@@H](NC(=O)[C@H](Cc1ccccc1)NC(=O)[C@@H](NC(=O)CNC(=O)[C@H](CCC(N)=O)NC(=O)[C@H](CO)NC(=O)[C@@H](N)Cc1c[nH]cn1)[C@@H](C)O)[C@@H](C)O)C(=O)N[C@@H](CC(=O)O)C(=O)N[C@@H](CO)C(=O)N[C@@H](CCCNC(=N)N)C(=O)N[C@@H](CCCNC(=N)N)C(=O)N[C@@H](C)C(=O)N[C@@H](CCC(N)=O)C(=O)N[C@@H](CC(=O)O)C(=O)N[C@@H](Cc1ccccc1)C(=O)N[C@H](C(=O)N[C@@H](CCC(N)=O)C(=O)N[C@@H](Cc1c[nH]c2ccccc12)C(=O)N[C@@H](CC(C)C)C(=O)N[C@H](C(=O)N[C@@H](C)C(=O)NCC(=O)NCC(N)=O)C(C)C)C(C)C)C(=O)O) [g731],–

# Reference: patent publication US20190185537A1 (AstraZeneca / MedImmune, published 2019)
